Experimental findings from PMC8808184 (2021) are described below.

For one assay, the target named is T1, E1 domain of chicken APP (chicken, biotin (EZ-Link NHS-PEG4-Biotin, 1:1 molar ratio) where immobilised in BLI).
T1 chain: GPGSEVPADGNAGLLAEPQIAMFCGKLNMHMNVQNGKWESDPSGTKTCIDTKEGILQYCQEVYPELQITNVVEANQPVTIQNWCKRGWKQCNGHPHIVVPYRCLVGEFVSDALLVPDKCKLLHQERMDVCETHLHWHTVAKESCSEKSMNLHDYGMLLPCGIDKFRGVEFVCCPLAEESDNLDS
In words: BLI. For orientation: BLI is a label-free optical method that tracks binding on a fibre tip over time.

Another assay concerns the target T2, E1 domain of human APLP1 (human, UniProt P51693 50-212, biotin (EZ-Link NHS-PEG4-Biotin, 1:1 molar ratio) where immobilised in BLI).
T2 chain: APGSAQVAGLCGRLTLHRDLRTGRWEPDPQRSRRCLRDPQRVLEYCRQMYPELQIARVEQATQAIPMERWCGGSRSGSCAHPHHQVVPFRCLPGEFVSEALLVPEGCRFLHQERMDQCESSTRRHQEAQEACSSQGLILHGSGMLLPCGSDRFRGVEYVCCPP
In words: BLI.

B1: FN1–FN3 region of chicken CNTN4, T751A and V752A (domain or fragment)
chain: GSTGSPPGPPEDVTIDEITDTTAQLSWRPGADNHSPITMYVVQARTPFSVGWQAVSTVPEVIDGKTFTATVVGLNPWVEYEFRVVAANLIGIGEPSRPSENRRTEEALPEVTPANVSGGGGSKSELVITWETVPEELQNGGGFGYVVAFRPFGTISWMQAAVASPDASRYVFRNESLPPFSPYEVKVGVYNNKGEGSFSPVTVVYSAEEEPTRAPITVLARSLSATDIEISWAPPRENQHKGRIQGYEVRCWRHDEKEENARKIRTVGNQTSAKVTNLQGNALYHLAVKAYNTAGTGPSSAMVNVTTKK
For the molecule B1, the Kd in the assay with E1 domain of chicken APP came out at 20.9 µM.

B2: FN1–FN3 region of CNTN5 titrated against human APLP1(E1) and human APLP2(E1) (domain or fragment)
chain: PPGIVIVEEITESTATLSWSPAADNHSPISSYNLQARSPFSLGWQTVKTVPEIITGDMESAMAVDLNPWVEYEFRVVATNPIGTGDPSTPSRMIRTNEAVPKTAPTNVSGRSGRRHELVIAWEPVSEEFQNGEGFGYIVAFRPNGTRGWKEKMVTSSEASKFIYRDESVPPLTPFEVKVGVYNNKGDGPFSQIVVICSAEGEPSAAPTDVKATSVSVSEILVAWKHIKESLGRPQGFEVGYWKDMEQEDTAETVKTRGNESFVILTGLEGNTLYHFTVRAYNGAGYGPPSSEVSATTKKS
On to B2, for which the Kd with E1 domain of human APLP1 worked out at 10.9 µM.

B3: FN1–FN3 region of CNTN3 titrated against human APLP1(E1) (domain or fragment)
chain: PPENVKVDEITDTTAQLSWKEGKDNHSPVISYSIQARTPFSVGWQTVTTVPEVIDGKTHTATVVELNPWVEYEFRVVASNKIGGGEPSLPSEKVRTEEAVPEVPPSEVNGGGGSRSELVITWDPVPEELQNGEGFGYVVAFRPLGVTTWIQTVVTSPDTPRYVFRNESIVPYSPYEVKVGVYNNKGEGPFSPVTTVFSAEEEPTVAPSQVSANSLSSSEIEVSWNTIPWKLSNGHLLGYEVRYWNGGGKEESSSKMKVAGNETSARLRGLKSNLAYYTAVRAYNSAGAGPFSATVNVTTKKT
For the molecule B3, in the assay with E1 domain of human APLP1, the Kd worked out at 9.1 µM.
